Results published in the nanobody polyreactivity screen of Harvey et al. (2022).

Assay: yeast display, Sf9 membrane polyspecificity reagent, FACS + sequencing; frameworks hold sequencing errors
How it was run: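 Galactose-induced (36–48 hours) yeast carrying a synthetic nanobody display library were exposed to 10% biotinylated, detergent-solubilized Sf9 membrane reagent at 4 °C for 1 hour. FACS followed streptavidin microbead enrichment, using low and high (top ~1%) gates for expression (anti-HA) and reagent binding (streptavidin). Colony PCR, MiSeq 2 × 250 sequencing and CDR-length filtering followed. Labels for polyreactivity reflect the gate of origin.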

Sequence	polyreactivity (PSR sort gate)
QVQLVESGGGLVQAGGSLRLSCAASGSILRTYTMGWYRQAPGKERELVAAISSSGGRTYYADSVKGRFTISRDNAKNTVYLQMNSLKPEDTAVYYCNAAYTTWRRGPMNYWGQGTQVTVSS	high polyreactivity
QVQLVESGGGLVQAGGSLRLSCAASGSILRYYTMGWYRQAPGKERELVASIRATGGNTYYADSVKGRFTISRDNAKNTVYLQMNSLKPEDTAVYYCAARYRKKYYWGQGTQVTVSS	high polyreactivity
QVQLVESGGGLVQAGGSLRLSCAASGSILSAYSMGWYRQAPGKARELVAAISKSGSSTYYSDSVKGRFTISRDNAKNTVYLQMNSLKPEDTAVYYCAAESSSYYGYYIYYYWGQGTQVTVSS	high polyreactivity
QVQLVESGGGLVQAGGSLRLSCAASGSILSENAMGWYRQAPGKERELVATISGSGSSTYYADSVKGRFTISRDNAKNTVYLQMNSLKPEDTAVYYCAAKYYLYWWPYDYWGQGTQVTVSS	low polyreactivity
QVQLVESGGGLVQAGGSLRLSCAASGSILSHNAMGWYRQAPGKERELVAAITTSGSTTYADSVKGRFTISRDNAKNTVYLQMNSLKPEDTAVYYCNARPDSWSDTAQNRYDYWGQGTQVTVSS	low polyreactivity
QVQLVESGGGLVQAGGSLRLSCAASGSILTRNAMGWYRQAPAKEREFVARITYSGGRTYYADSVKGRFTISRDNAKNTVYLQMNSLKPEDTAVYYCAKTDRYSLGYWGQGTQVTVSS	low polyreactivity
QVQLVESGGGLVQAGGSLRLSCAASGSILTVYSMGWYRQAPGKERELVARIRSGDRTYYADSVKGRFTISRDNAKNTVYLQMNSLKPEDTAVYYCAAGSQRRYYHTNWDSFNYWGQGTQVTVSS	low polyreactivity
QVQLVESGGGLVQAGGSLRLSCAASGSILVNNAMGWYRQAPGKERELVAAISRSGTRTFYADSVKGRFTISRENAKNTVYLQMNSLKPEDTAVYYCAVDYYYRMDYWGQGTQVTVSS	high polyreactivity
QVQLVESGGGLVQAGGSLRLSCAASGSILWLYVMGWYRQAPGKERELVATITSSGGSTYYADSVKGRFTISRDNAKNTVYLQKNSLKPEDTAVYYSAAQTYNSYDYWGQATQVTVSS	low polyreactivity
QVQLVESGGGLVQAGGSLRLSCAASGSILWQYAIGRYRQAPGKEMELVAAINQRGGSTYYADSVKGRFTISRDYAKNTVYLQMNSLKPEDTAVYYCNTYPTRTYPSYYYWGQGTQVTVSS	high polyreactivity
QVQLVESGGGLVQAGGSLRLSCAASGSILWQYAMGWSRQAPGKERELVAAITYSGASTHYADSVKGRFTISRDNAKNTVYLQMNRLKPEDTAVYYCAAGYWYRYAALRYDHWGQGTQVTVSS	low polyreactivity
QVQLVESGGGLVQAGGSLRLSCAASGSILWVNAMGWYRQAPGKERELVAAITSGGDSTNYADSVKGRFTISRDNAKNTVYLQMNSLKPEDTAVYYCNAEFWLNEDLDYDTSYDYWGQGTQVTVSS	low polyreactivity
QVQLVESGGGLVQAGGSLRLSCAASGSILYANAMGWYRQAPGKDRELVAAISARGTSTYYADSVKGRFTISRDNAKNTVYLQMNSLKPEDTAVYYCAAYVRKKLPSALMNYWGQGTQVTVSS	high polyreactivity
QVQLVESGGGLVQAGGSLRLSCAASGSILYLNAMGWYRQAPGKERELVAAITWSGGSTSYADSVKGRFTISRDNAKNTVYLQMISLKPEDTAVYYCAAVRRGYGGVYYAGGYWGQGTQVTVSS	low polyreactivity
QVQLVESGGGLVQAGGSLRLSCAASGSILYPNAMGLYRQAPGKERELVAAISSSGGSTYYADSVKGRFTISRDNAKNTVYLQMNSLKPEDTAVYYCAADHYIPIYSKYDYWGQVTQVTVSS	high polyreactivity
QVQLVESGGGLVQAGGSLRLSCAASGSILYRNAMGWYRQAPGKEREFVAAISWRGGSTYYADSVKGRFTISRDNAKNTVYLQMNSLKPEDTAVYYCAKGGYRSPPGRYDGYYWGQGTQVTVSS	high polyreactivity
QVQLVESGGGLVQAGGSLRLSCAASGSILYRYTMGWYRQAPGKERELVAAITKRGGRTYYADSVKGRFTISRDNAKNTVYLQMNSLKPEDTAVYYCAAKYYTGGSFEMYYWGQGTQVTVSS	high polyreactivity
